Patent US7744896 (ISTITUTO SUPERIORE DI SANITA, dated 2010)

Assays:
[1] = molecular target: T1, α5β1 integrin (fibronectin receptor) on cytokine-activated human umbilical vein endothelial (HUVE) cells (human, UniProt P08648 42-1049; P05556 21-798); experiment: conclusion of the uptake inhibition experiments on IC-activated HUVE cells
T1 construct: whole, on cells; also called FN receptor

[2] = molecular target: T2, αvβ3 integrin (vitronectin receptor) on cytokine-activated human umbilical vein endothelial (HUVE) cells (human, UniProt P06756 31-1048; P05106 27-788); experiment: as above
T2 construct: whole, on cells; also called VN receptor
T2 sequence (P06756 31-1048, chain 1 of 2): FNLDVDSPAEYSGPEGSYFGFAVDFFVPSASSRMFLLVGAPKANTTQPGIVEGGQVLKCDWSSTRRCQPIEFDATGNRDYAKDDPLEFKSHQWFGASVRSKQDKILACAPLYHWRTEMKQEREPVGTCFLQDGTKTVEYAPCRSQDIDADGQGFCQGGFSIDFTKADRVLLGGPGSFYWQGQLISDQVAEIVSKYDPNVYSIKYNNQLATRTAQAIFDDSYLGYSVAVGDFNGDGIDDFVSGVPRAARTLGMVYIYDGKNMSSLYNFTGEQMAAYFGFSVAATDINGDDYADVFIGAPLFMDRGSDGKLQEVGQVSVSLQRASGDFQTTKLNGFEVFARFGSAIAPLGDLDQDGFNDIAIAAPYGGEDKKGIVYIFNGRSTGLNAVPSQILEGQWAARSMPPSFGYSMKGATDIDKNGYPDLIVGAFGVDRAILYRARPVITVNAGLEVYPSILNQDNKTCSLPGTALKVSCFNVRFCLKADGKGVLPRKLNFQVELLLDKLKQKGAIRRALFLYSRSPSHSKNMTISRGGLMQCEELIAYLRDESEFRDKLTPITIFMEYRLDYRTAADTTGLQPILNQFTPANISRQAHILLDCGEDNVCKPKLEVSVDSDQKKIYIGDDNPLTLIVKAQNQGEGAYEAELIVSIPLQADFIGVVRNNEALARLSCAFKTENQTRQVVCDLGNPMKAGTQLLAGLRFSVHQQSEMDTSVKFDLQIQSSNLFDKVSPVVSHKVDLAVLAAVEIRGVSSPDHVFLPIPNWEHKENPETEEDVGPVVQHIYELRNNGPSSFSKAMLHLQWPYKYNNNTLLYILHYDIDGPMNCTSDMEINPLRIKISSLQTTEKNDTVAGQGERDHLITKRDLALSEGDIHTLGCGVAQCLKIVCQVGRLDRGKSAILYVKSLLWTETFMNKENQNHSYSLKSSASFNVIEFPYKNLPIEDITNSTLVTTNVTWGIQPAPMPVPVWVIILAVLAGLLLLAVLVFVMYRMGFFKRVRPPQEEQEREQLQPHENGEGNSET
T2 sequence (P05106 27-788, chain 2 of 2): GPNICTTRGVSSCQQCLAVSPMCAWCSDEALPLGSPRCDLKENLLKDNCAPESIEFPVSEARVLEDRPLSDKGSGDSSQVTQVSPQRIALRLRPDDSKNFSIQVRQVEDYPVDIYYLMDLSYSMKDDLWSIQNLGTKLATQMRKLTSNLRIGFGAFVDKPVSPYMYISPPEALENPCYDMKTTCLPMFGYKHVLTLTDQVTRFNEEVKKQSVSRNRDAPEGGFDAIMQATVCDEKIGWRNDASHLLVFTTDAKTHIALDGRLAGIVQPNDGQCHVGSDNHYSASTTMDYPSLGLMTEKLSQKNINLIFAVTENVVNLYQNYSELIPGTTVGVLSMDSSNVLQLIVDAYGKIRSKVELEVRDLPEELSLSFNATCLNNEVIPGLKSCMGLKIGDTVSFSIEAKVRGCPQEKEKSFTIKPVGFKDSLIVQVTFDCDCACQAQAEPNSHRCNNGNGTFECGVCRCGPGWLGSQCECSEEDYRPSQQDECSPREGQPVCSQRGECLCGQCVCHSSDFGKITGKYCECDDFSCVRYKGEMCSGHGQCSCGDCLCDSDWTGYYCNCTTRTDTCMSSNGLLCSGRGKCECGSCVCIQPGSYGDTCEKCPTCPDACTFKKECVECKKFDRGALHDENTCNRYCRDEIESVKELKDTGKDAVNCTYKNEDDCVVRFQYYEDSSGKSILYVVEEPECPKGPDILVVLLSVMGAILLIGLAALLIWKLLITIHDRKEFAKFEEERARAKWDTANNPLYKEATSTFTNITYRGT

T1 sequence (P08648 42-1049, chain 1 of 2): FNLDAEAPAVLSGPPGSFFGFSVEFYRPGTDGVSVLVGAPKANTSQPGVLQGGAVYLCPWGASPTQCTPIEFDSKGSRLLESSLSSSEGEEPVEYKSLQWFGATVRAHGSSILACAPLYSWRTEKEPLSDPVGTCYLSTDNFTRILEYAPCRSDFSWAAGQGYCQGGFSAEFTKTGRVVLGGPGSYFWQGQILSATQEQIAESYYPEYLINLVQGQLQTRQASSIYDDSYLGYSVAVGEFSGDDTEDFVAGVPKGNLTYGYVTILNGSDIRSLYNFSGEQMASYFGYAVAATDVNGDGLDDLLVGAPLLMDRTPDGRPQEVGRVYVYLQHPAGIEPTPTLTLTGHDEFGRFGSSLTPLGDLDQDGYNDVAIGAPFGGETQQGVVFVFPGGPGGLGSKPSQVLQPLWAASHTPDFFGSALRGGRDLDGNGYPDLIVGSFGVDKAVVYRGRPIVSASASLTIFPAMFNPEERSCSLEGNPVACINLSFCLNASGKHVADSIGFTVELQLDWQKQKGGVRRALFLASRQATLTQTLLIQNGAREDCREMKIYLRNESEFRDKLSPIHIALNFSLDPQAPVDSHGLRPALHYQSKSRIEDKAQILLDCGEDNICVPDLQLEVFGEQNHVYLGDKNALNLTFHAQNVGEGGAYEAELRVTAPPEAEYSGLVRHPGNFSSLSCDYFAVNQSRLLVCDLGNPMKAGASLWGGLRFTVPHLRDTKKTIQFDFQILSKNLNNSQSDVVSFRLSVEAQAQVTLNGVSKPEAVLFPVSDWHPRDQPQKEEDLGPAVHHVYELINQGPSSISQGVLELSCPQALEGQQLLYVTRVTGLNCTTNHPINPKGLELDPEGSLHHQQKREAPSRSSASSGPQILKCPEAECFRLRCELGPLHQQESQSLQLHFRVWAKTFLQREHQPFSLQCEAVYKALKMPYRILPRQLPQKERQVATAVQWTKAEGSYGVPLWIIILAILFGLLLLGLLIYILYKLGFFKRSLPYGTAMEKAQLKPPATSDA
T1 sequence (P05556 21-798, chain 2 of 2): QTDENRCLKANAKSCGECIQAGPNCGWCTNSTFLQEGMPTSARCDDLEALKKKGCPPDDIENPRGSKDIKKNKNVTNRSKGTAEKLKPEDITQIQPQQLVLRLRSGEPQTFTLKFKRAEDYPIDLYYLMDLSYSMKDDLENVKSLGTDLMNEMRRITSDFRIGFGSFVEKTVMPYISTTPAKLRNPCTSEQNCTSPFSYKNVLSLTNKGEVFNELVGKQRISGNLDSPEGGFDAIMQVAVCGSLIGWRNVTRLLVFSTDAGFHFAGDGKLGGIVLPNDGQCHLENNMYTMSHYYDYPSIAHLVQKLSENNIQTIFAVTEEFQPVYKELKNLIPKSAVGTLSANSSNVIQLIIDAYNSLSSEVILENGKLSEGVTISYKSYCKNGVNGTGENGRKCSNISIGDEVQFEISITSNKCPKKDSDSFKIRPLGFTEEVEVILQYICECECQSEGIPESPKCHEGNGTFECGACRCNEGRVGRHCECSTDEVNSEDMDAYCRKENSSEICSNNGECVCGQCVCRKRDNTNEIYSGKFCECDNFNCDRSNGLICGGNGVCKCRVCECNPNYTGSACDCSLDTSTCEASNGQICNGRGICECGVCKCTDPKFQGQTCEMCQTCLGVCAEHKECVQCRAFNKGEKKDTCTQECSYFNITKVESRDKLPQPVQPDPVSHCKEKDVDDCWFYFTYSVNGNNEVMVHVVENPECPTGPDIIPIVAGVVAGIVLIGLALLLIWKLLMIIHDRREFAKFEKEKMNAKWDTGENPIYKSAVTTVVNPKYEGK

B1: rhodaminated Tat protein (other)
chain: MEPVDPRLEPWKHPGSQPKTACTNCYCKKCCFHCQVCFITKALGISYGRKKRRQRRRPPQGSQTHQVSLSKQPTSQSRGDPTGPKE
modifications: rhodaminated (TRITC) at lysine residues
notes: Recombinant Tat labelled with TRITC; also called rhodaminated biologically-active Tat protein
Does B1 bind [1]?
Result: binds

Does B1 bind [2]?
Result: binds
